# Laboratory results: patent CN114651011A (dated 2022)
# B1: h-UMG1 (人源化UMG1单克隆抗体, H3-L4) (antibody, human IgG1, kappa, V domains shown)
# VH: EVQLVESGGGLVQPGGSLRLSCVASGFTFSSFGMHWVRQAPGKGLEWVAYISSGSGNFYYVDTVKGRFTISRDNAKNSLYLQMNSLRAEDTAVYYCARSTYYHGSRGAMDYWGQGTLVTVSS
# VL: QVVMTQSPAFLSVTPGEKVTITCSASSSVSSMYWYQLKPDQAPKLLIYDTSKMASGVPIRFSGSGSGTDFTFTVSSVEAEDAATYYCQQWSSYPPITFGGGTKVEIKR
# notes: IgG1; also called h-UMG1单抗; 人源化单克隆抗CD43抗体
# Columns and labels:
# [1] = biological target: T1, CD43#6 (CD43 with aa 64 to 78 deleted), expressed in HEK293T cells (human, UniProt P16150 20-400); test: FACS with h-UMG1-PE on GFP-positive transfected HEK293T cells
# T1 construct: also called CD43克隆#6; 第五CD43变体; not shown: His tag (and GFP by the name of the vector pLenti-CMV-(insert)-Histag-GFP-2A-Puro)
# T1 sequence: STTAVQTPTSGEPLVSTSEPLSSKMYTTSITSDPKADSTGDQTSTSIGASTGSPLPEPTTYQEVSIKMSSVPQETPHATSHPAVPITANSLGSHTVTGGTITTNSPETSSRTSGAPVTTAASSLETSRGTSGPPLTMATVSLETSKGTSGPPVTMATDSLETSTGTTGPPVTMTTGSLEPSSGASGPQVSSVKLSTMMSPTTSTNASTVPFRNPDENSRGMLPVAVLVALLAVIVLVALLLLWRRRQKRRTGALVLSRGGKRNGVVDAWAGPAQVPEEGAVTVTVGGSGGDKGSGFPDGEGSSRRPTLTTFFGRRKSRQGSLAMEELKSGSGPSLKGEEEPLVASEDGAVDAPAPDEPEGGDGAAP
# [2] = biological target: T2, 重组人CD43细胞外部分 (aa 20-253), produced in E. coli, not glycosylated (human, UniProt P16150 20-253); test: SPRi (PlexArray HT), antibody printed on the gold chip, recombinant CD43 aa 20-253 from E. coli as analyte, 25°C
# T2 construct: also called 重组人CD43分析物(aa 20-253); CD43的无糖基化细胞外部分
# T2 sequence: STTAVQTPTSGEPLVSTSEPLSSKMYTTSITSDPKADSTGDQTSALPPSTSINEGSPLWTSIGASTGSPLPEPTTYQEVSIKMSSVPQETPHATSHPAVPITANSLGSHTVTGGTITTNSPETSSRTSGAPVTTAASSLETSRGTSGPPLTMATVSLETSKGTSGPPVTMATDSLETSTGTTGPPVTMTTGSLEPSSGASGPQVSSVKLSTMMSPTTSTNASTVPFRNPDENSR
# [3] = biological target: T3, 野生型肽 PPSTSINEGSPLWTS (aa 66-80 of human CD43), peptide of the epitope substitution scan (human); test: substitution scan peptide microarray, antibody at 1, 10, 100 and 250 μg/ml
# T3 construct: also called wild-type peptide; 人CD43的线性表位，用于取代筛选
# T3 peptide: PPSTSINEGSPLWTS
binder,measurement,setting,value
B1,binding result,[1],no binding (tested: 1μg/ml)
same,Kd,[2],99.4 nM
same,binding result,[3],binds
